These results are taken from patent EP1801220A2 (Monsanto Technology, LLC, dated 2007).

Data set [1] addresses Cry3Bb.11032 (D165G) (Bacillus thuringiensis) (UniProt Q06117). Kind of data set: cell-based or functional assay.
Data set [2] concerns the molecule itself. As to the kind of experiment: SDS-PAGE of unheated samples, Coomassie stain, self-association.

As to “Cry3Bb.11032 (D165G) (from UniProt Q06117 1-652)”, the initial channel conductances when the protein is artificially incorporated into the membrane in data set [1] came out at 16 fold.

B1: Cry3Bb.60 (60 kDa trypsin-truncated Cry3Bb, first 159 residues removed) (other)
chain: SKRSQDRIRELFSQAESHFRNSMPSFAVSKFEVLFLPTYAQAANTHLLLLKDAQVFGEEWGYSSEDVAEFYHRQLKLTQQYTDHCVNWYNVGLNGLRGSTYDAWVKFNRFRREMTLTVLDLIVLFPFYDIRLYSKGVKTELTRDIFTDPIFSLNTLQEYGPTFLSIENSIRKPHLFDYLQGIEFHTRLQPGYFGKDSFNYWSGNYVETRPSIGSSKTITSPFYGDKSTEPVQKLSFDGQKVYRTIANTDVAAWPNGKVYLGVTKVDFSQYDDQKNETSTQTYDSKRNNGHVSAQDSIDQLPPETTDEPLEKAYSHQLNYAECFLMQDRRGTIPFFTWTHRSVDFFNTIDAEKITQLPVVKAYALSSGASIIEGPGFTGGNLLFLKESSNSIAKFKVTLNSAALLQRYRVRIRYASTTNLRLFVQNSNNDFLVIYINKTMNKDDDLTYQTFDLATTNSNMGFSGDKNELIIGAESFVSNEKIYIDKIEFIPVQL
notes: Made by trypsin digestion of solubilized Cry3Bb, which cleaves after R159; The range counts on wild-type Cry3Bb; also called CryB2.60; Δ1-159
On to B1, for which the binding result in data set [2] is “binds”.
